Residue numbers refer to the chain shown, from its start. Names may count otherwise.
How the values were obtained:
Q9I291 [1] = experiment: SEC; Superdex 200 10/300 GL, 50 mM Tris-HCl pH 8.0, 300 mM NaCl, 10 mM MgCl2; oligomeric state calculated from elution volumes of proteins of known size; addition of UTP, Glc-1-P or UDP-Glc did not affect the oligomerization of the WT
[2] = target: the molecule itself; experiment: cell-based or functional assay
[3] = target: the molecule itself; experiment: native gel or EMSA; blue native PAGE, uniform 12% polyacrylamide gel with 3.5% stacking gel, 13.5 ug of each protein loaded, Coomassie-stained bands
[4] = target: the molecule itself; experiment: SEC; Superdex 200 10/300 GL, 50 mM Tris-HCl pH 8.0, 300 mM NaCl, 10 mM MgCl2; oligomeric state calculated from elution volumes of proteins of known size; addition of UTP, Glc-1-P or UDP-Glc did not affect the oligomerization of the WT
[5] = target: the molecule itself; experiment: SEC; as a1, but the more diluted sample of mutants with dilution-dependent behaviour (footnote b of Table 1; broken lines in Fig. 5 and Fig. S9)
Q9I291 [6] = experiment: as above
[7] = target: the molecule itself; experiment: SEC; Superdex 200 10/300 GL, 50 mM Tris-HCl pH 8.0, 300 mM NaCl, 10 mM MgCl2; oligomeric state calculated from elution volumes of proteins of known size; addition of UTP, Glc-1-P or UDP-Glc did not affect the oligomerization of the WT; remark: listed apart in the source

B1: PaUGP N32A (enzyme)
chain: MIKKCLFPAAGYGTRFLPATKAMPKEMLPVVAKPLIQYAVEEALEAGLSEIGIVTGRGKRSLEDHFDISYELEHQIRNTDKEKYLVGIRRLIDECTFAYTRQVEMKGLGHAILTGRPLIGDEPFAVVLADDLCLNLEGDSVLKQMVKLYNQFRCSIVAIQEVPPEETNKYGVIAGEMIRDDIFRVNTMVEKPKPEEAPSNLAIIGRYILTPDIFDLIEQTEPGKGGEIQITDALMKQAQDGCVLAYKFKGKRFDCGSAEGYIEATNFCYENLYKTGKAH
notes: UDP-glucose pyrophosphorylase of Pseudomonas aeruginosa (galU), residues 1-279, point mutant of Strep-PaUGP; Same construct as m1; source: E. coli BL21(DE3), purified (Strep-Tactin Sepharose); not shown: Strep-tagII, N-terminal, kept
N of the monomer peak (minor peak) (Q9I291 [1]): 1.1
In vitro activity (% of WT), EnzChek pyrophosphate assay, forward reaction [2]: 56.2 % of WT
stoichiometry N [3]: 4
stoichiometry N [4]: 4.4

B2: PaUGP D67A (enzyme)
chain: B1 chain with A32N, D67A
notes: as for B1
In vitro activity (% of WT), EnzChek pyrophosphate assay, forward reaction [2]: 3.31 % of WT
N of a minor peak [4]: 5.5
stoichiometry N [4]: 2.3

B3: PaUGP R101A (enzyme)
chain: B1 chain with A32N, R101A
notes: as for B1
N of a minor peak [5]: 3.6
stoichiometry N [5]: 1.8
In vitro activity (% of WT), EnzChek pyrophosphate assay, forward reaction [2]: 0.83 % of WT
N of the monomer peak (minor peak) (Q9I291 [6]): 1.2

B4: PaUGP R57A (enzyme)
chain: B1 chain with A32N, R57A
notes: as for B1
stoichiometry N [5]: 2.4
In vitro activity (% of WT), EnzChek pyrophosphate assay, forward reaction [2]: 1.28 % of WT
stoichiometry N [3]: 4
N of the monomer peak (minor peak) (Q9I291 [6]): 1.2

B5: PaUGP N32D (enzyme)
chain: B1 chain with A32D
notes: as for B1
N of the monomer peak (minor peak) (Q9I291 [1]): 1.4
In vitro activity (% of WT), EnzChek pyrophosphate assay, forward reaction [2]: 110 % of WT
stoichiometry N [4]: 4.7

B6: PaUGP H74F (enzyme)
chain: B1 chain with A32N, H74F
notes: as for B1
N of the monomer peak (minor peak) (Q9I291 [1]): 1.1
stoichiometry N [3]: 4
stoichiometry N [4]: 3.5

B7: PaUGP Y70A (enzyme)
chain: B1 chain with A32N, Y70A
notes: as for B1
N of the monomer peak (minor peak) (Q9I291 [1]): 1.3
In vitro activity (% of WT), EnzChek pyrophosphate assay, forward reaction [2]: 4.08 % of WT
N of a minor peak [4]: 3.8
stoichiometry N [4]: 2.5

B8: PaUGP K59A (enzyme)
chain: B1 chain with A32N, K59A
notes: as for B1
In vitro activity (% of WT), EnzChek pyrophosphate assay, forward reaction [2]: 2.31 % of WT
stoichiometry N [3]: 4
stoichiometry N [4]: 3.6

B9: PaUGP H74A (enzyme)
chain: B1 chain with A32N, H74A
notes: as for B1
N of the monomer peak (minor peak) (Q9I291 [1]): 1.3
In vitro activity (% of WT), EnzChek pyrophosphate assay, forward reaction [2]: 60.3 % of WT
stoichiometry N [3]: 4
stoichiometry N [4]: 3.7

B10: PaUGP D67N (enzyme)
chain: B1 chain with A32N, D67N
notes: as for B1
In vitro activity (% of WT), EnzChek pyrophosphate assay, forward reaction [2]: 2.54 % of WT
N of a minor peak [4]: 3.8
stoichiometry N [4]: 2.1

B11: PaUGP Y70F (enzyme)
chain: B1 chain with A32N, Y70F
notes: as for B1
N of the monomer peak (minor peak) (Q9I291 [1]): 1.3
In vitro activity (% of WT), EnzChek pyrophosphate assay, forward reaction [2]: 47.2 % of WT
stoichiometry N [3]: 4
stoichiometry N [4]: 3.7

B12: PaUGP R101K (enzyme)
chain: B1 chain with A32N, R101K
notes: as for B1
stoichiometry N [5]: 2.1
In vitro activity (% of WT), EnzChek pyrophosphate assay, forward reaction [2]: 1.31 % of WT
N of the monomer peak (minor peak) (Q9I291 [6]): 1.2

B13: Pseudomonas aeruginosa uridine diphosphate-glucose pyrophosphorylase, wild type (Strep-PaUGP) (enzyme)
chain: B1 chain with A32N
notes: UDP-glucose pyrophosphorylase (UGP, EC 2.7.7.9) of Pseudomonas aeruginosa, galU gene amplified from plasmid PaCD00006903; residues 1-279; no cleavage is reported; Crystallised with UDP-Glc and Mg2+; also called PaUGP WT; Strep-tagged PaUGP; source: E. coli BL21(DE3), purified (Strep-Tactin Sepharose); not shown: Strep-tagII, N-terminal, kept
stoichiometry N [7]: 4

B14: PaUGP R57K (enzyme)
chain: B1 chain with A32N, R57K
notes: as for B1
stoichiometry N [5]: 3.2
In vitro activity (% of WT), EnzChek pyrophosphate assay, forward reaction [2]: 2.36 % of WT
stoichiometry N [3]: 4
N of the monomer peak (minor peak) (Q9I291 [6]): 1.2

B15: PaUGP K21A + R101A double mutant (enzyme)
chain: B1 chain with K21A, A32N, R101A
In vitro activity (% of WT), EnzChek pyrophosphate assay, forward reaction [2]: 0.32 % of WT

B16: PaUGP E63A (enzyme)
chain: B1 chain with A32N, E63A
notes: as for B1
In vitro activity (% of WT), EnzChek pyrophosphate assay, forward reaction [2]: 7.6 % of WT
stoichiometry N [4]: 3.6

B17: PaUGP K59R (enzyme)
chain: B1 chain with A32N, K59R
notes: as for B1
In vitro activity (% of WT), EnzChek pyrophosphate assay, forward reaction [2]: 1.66 % of WT
stoichiometry N [4]: 4

B18: PaUGP E63D (enzyme)
chain: B1 chain with A32N, E63D
notes: as for B1
N of the monomer peak (minor peak) (Q9I291 [1]): 1.3
In vitro activity (% of WT), EnzChek pyrophosphate assay, forward reaction [2]: 5.68 % of WT
stoichiometry N [3]: 4
stoichiometry N [4]: 3.9

B19: PaUGP K21Q (enzyme)
chain: B1 chain with K21Q, A32N
notes: as for B1
N of a minor peak [5]: 2.7
In vitro activity (% of WT), EnzChek pyrophosphate assay, forward reaction [2]: 1.26 % of WT
N of the monomer peak (main peak) (Q9I291 [6]): 1.4

B20: PaUGP D67A + R101A double mutant (enzyme)
chain: B1 chain with A32N, D67A, R101A
notes: UDP-glucose pyrophosphorylase of Pseudomonas aeruginosa (galU), residues 1-279, double mutant of Strep-PaUGP; Same construct as m1; source: E. coli BL21(DE3), purified (Strep-Tactin Sepharose); not shown: Strep-tagII, N-terminal, kept
In vitro activity (% of WT), EnzChek pyrophosphate assay, forward reaction [2]: 1.57 % of WT
stoichiometry N [4]: 2

B21: PaUGP K21A (enzyme)
chain: B1 chain with K21A, A32N
notes: UDP-glucose pyrophosphorylase of Pseudomonas aeruginosa (galU), residues 1-279, point mutant of Strep-PaUGP; source: E. coli BL21(DE3), purified (Strep-Tactin Sepharose); not shown: Strep-tagII, N-terminal, kept
N of a minor peak [5]: 2.3
In vitro activity (% of WT), EnzChek pyrophosphate assay, forward reaction [2]: 5 % of WT
N of the monomer peak (main peak) (Q9I291 [6]): 1.2

B22: PaUGP Q75E (enzyme)
chain: B1 chain with A32N, Q75E
notes: as for B1
stoichiometry N [4]: 3.5

B23: PaUGP N266D (enzyme)
chain: B1 chain with A32N, N266D
notes: as for B1
N of the monomer peak (minor peak) (Q9I291 [1]): 1.2
In vitro activity (% of WT), EnzChek pyrophosphate assay, forward reaction [2]: 105 % of WT
stoichiometry N [3]: 4
stoichiometry N [4]: 4.2

B24: PaUGP N266A (enzyme)
chain: B1 chain with A32N, N266A
notes: as for B1
N of the monomer peak (minor peak) (Q9I291 [1]): 1.2
In vitro activity (% of WT), EnzChek pyrophosphate assay, forward reaction [2]: 64.9 % of WT
stoichiometry N [4]: 4

B25: PaUGP Q75A (enzyme)
chain: B1 chain with A32N, Q75A
notes: as for B1
N of the monomer peak (minor peak) (Q9I291 [1]): 1.2
stoichiometry N [3]: 4
stoichiometry N [4]: 4.2
